Source: publication PMC10516921 (Nature Communications, 2023)

B1: human FSP1 residues 1-316 (hFSP1^ΔCTD), recombinant from E. coli (domain or fragment, UniProt Q9BRQ8 1-316, looked up)
chain: MGSQVSVESGALHVVIVGGGFGGIAAASQLQALNVPFMLVDMKDSFHHNVAALRASVETGFAKKTFISYSVTFKDNFRQGLVVGIDLKNQMVLLQGGEALPFSHLILATGSTGPFPGKFNEVSSQQAAIQAYEDMVRQVQRSRFIVVVGGGSAGVEMAAEIKTEYPEKEVTLIHSQVALADKELLPSVRQEVKEILLRKGVQLLLSERVSNLEELPLNEYREYIKVQTDKGTEVATNLVILCTGIKINSSAYRKAFESRLASSGALRVNEHLQVEGHSNVYAIGDCADVRTPKMAYLAGLHANIAVANIVNSVKQR
notes: FSP1 (AIFM2), human, residues 1-316; lacks the C-terminal domain; source: E. coli BL21 (DE3), purified (Ni-Chelating Sepharose, Ulp1 cleavage, Superdex 200 Increase); not shown: His6, N-terminal, cleaved; SUMO, N-terminal, cleaved
B2: Gallus gallus ferroptosis suppressor protein 1, full length (enzyme, Gallus gallus (chicken), UniProt E1BR24 1-373, looked up)
chain: MGSRLSVDDSVRVVIVGGGFGGIAAASQLKSWAVPFVLVDMRDAFHHNVAALRASVESGFARKTFISYSVTFGDSFRQGKVVGIDPERQQVLLSDGEELHYSHLILATGSDGPFPGKFNKVIDMESAIQTYEDMVKEIEKSERILVVGGGAAGVEMAAEIKTEYPAKEVTLIHSKIALADVELLQSVRQEVKEILLRKGVRLLLSEKVSNVENLTTNQFQKDMVVRTEKGTEVVVDMVVLCTGIKINSSAYATAFGDKLASNGALNVNKHLQLEGYDNIYAIGDCANLKEPKMAYHAELHANIVVSNIINSLTHKPLKTYQPGSLTFLLSMGKNDGVGQVKGYYVGHLLVTIAKSRDLFVSKSWKTMGQPMPS
notes: Ferroptosis suppressor protein 1 (FSP1, AIFM2) of chicken (Gallus gallus), full length, residues 1-373; gene optimized and synthesized, in pET-22b; also called cFSP1; chicken FSP1; source: E. coli BL21 (DE3), purified (Ni-Chelating Sepharose, Superdex 200 Increase)
B3: Gallus gallus FSP1 residues 12-373 (cFSP1^ΔN), not methylated (domain or fragment, Gallus gallus (chicken), UniProt E1BR24 12-373, looked up)
chain: RVVIVGGGFGGIAAASQLKSWAVPFVLVDMRDAFHHNVAALRASVESGFARKTFISYSVTFGDSFRQGKVVGIDPERQQVLLSDGEELHYSHLILATGSDGPFPGKFNKVIDMESAIQTYEDMVKEIEKSERILVVGGGAAGVEMAAEIKTEYPAKEVTLIHSKIALADVELLQSVRQEVKEILLRKGVRLLLSEKVSNVENLTTNQFQKDMVVRTEKGTEVVVDMVVLCTGIKINSSAYATAFGDKLASNGALNVNKHLQLEGYDNIYAIGDCANLKEPKMAYHAELHANIVVSNIINSLTHKPLKTYQPGSLTFLLSMGKNDGVGQVKGYYVGHLLVTIAKSRDLFVSKSWKTMGQPMPS
notes: FSP1 (AIFM2) of chicken (Gallus gallus), residues 12-373; lacks the N-terminal myristoylation motif (residues 1-11); Same limits as the crystallized, methylated protein; also called native cFSP1^ΔN; source: E. coli BL21 (DE3), purified (Ni-Chelating Sepharose, Superdex 200 Increase)
B4: Gallus gallus FSP1 residues 12-373 (cFSP1^ΔN), reductively methylated (domain or fragment, Gallus gallus (chicken), UniProt E1BR24 12-373, looked up)
chain: RVVIVGGGFGGIAAASQLKSWAVPFVLVDMRDAFHHNVAALRASVESGFARKTFISYSVTFGDSFRQGKVVGIDPERQQVLLSDGEELHYSHLILATGSDGPFPGKFNKVIDMESAIQTYEDMVKEIEKSERILVVGGGAAGVEMAAEIKTEYPAKEVTLIHSKIALADVELLQSVRQEVKEILLRKGVRLLLSEKVSNVENLTTNQFQKDMVVRTEKGTEVVVDMVVLCTGIKINSSAYATAFGDKLASNGALNVNKHLQLEGYDNIYAIGDCANLKEPKMAYHAELHANIVVSNIINSLTHKPLKTYQPGSLTFLLSMGKNDGVGQVKGYYVGHLLVTIAKSRDLFVSKSWKTMGQPMPS
modifications: surface lysine residues modified by reductive methylation (formaldehyde and dimethylamine-borane complex)
notes: FSP1 (AIFM2) of chicken (Gallus gallus), residues 12-373; lacks the N-terminal myristoylation motif (residues 1-11); Crystallized substrate-free and with CoQ1; A selenomethionine derivative was used for phasing; also called methylated cFSP1^ΔN; source: E. coli BL21 (DE3), purified (Ni-chelating resin, HiTrap Heparin, reductive methylation, Superdex 200 Increase)
B5: Gallus gallus FSP1 residues 1-318 (cFSP1^ΔCTD) (domain or fragment, Gallus gallus (chicken), UniProt E1BR24 1-318, looked up)
chain: MGSRLSVDDSVRVVIVGGGFGGIAAASQLKSWAVPFVLVDMRDAFHHNVAALRASVESGFARKTFISYSVTFGDSFRQGKVVGIDPERQQVLLSDGEELHYSHLILATGSDGPFPGKFNKVIDMESAIQTYEDMVKEIEKSERILVVGGGAAGVEMAAEIKTEYPAKEVTLIHSKIALADVELLQSVRQEVKEILLRKGVRLLLSEKVSNVENLTTNQFQKDMVVRTEKGTEVVVDMVVLCTGIKINSSAYATAFGDKLASNGALNVNKHLQLEGYDNIYAIGDCANLKEPKMAYHAELHANIVVSNIINSLTHKPLK
notes: FSP1 (AIFM2) of chicken (Gallus gallus), residues 1-318; lacks the C-terminal domain (319-373); source: E. coli BL21 (DE3), purified (Ni-Chelating Sepharose, Superdex 200 Increase)

How the values were obtained:
[1] = target: human ferroptosis suppressor protein 1, full length, recombinant from E. coli (human) (UniProt Q9BRQ8); experiment: dynamic light scattering; DynaPro NanoStar, 8 °C or 20 °C, 5-10 μM protein in buffer B; also with NADH
[2] = target: the molecule itself; experiment: SEC + other: dynamic light scattering; in solution; the sentence points to Supplementary Fig. 4 as a whole (gel filtration in panels a, b; DLS in panel c)
[3] = target: the molecule itself; experiment: SEC; Superdex 200 Increase 10/300 GL, buffer B (20 mM Tris-HCl pH 8.0, 150 mM NaCl), 0.5 ml/min, 20 °C, molecular weight markers

| Molecule | stoichiometry N [2] | stoichiometry N [3] | further results |
| --- | --- | --- | --- |
| human ferroptosis suppressor protein 1, full length, recombinant from E. coli (from UniProt Q9BRQ8 1-373) (enzyme) |  |  | stoichiometry N [1]: 2 |
| B1 | 2 |  |  |
| B2 |  | 2 |  |
| B3 |  | 2 |  |
| B4 |  | 2 |  |
| B5 | 2 |  |  |
